{"source": "patent US20030119145A1", "molecules": {"B1": {"name": "truncated (soluble) CPRA from Candida tropicalis, produced in Sf9 insect cells (protein)", "chain": "MDTGFLNTDSGSNSRDVLLTLKKNNKNTLLLFGSQTGTAEDYANKLSRELHSRFGLKTMVADFADYDWDNFGDITEDILVFFIVATYGEGEPTDNADEFHTWLTEEADTLSTLKYTVFGLGNSTYEFFNAIGRKFDRLLSEKGGDRFAEYAEGDDGTGTLDEDFMAWKDNVFDALKNDLNFEEKELKYEPNVKLTERDDLSAADSQVSLGEPNKKYINSEGIDLTKGPFDHTHPYLARITETRELFSSKDRHCIHVEFDISESNLKYTTGDHLAIWPSNSDENIKQFAKCFGLEDKLDTVIELKALDSTYTIPFPTPITYGAVIRHHLEISGPVSRQFFLSIAGFAPDEETKKAFTRLGGDKQEFAAKVTRRKFNIADALLYSSNNAPWSDVPFEFLIENVPHLTPRYYSISSSSLSEKQLINVTAVVEAEEEADGRPVTGVVTNLLKNVEIVQNKTGEKPLVHYDLSGPRGKFNKFKLPVHVRRSNFKLPKNSTTPVILIGPGTGVAPLRGFVRERVQQVKNGVNVGKTLLFYGCRNSNEDFLYKQEWAEYASVLGENFEMFNAFSRQDPSKKVYVQDKILENSQLVHELLTEGAIIYVCGDASRMARDVQTTISKIVAKSREISEDKAAELVKSWKVQNRYQEDVW"}, "B2": {"name": "polyhistidine tagged soluble CPRA from Candida tropicalis, produced in E. coli (pET15b) (protein)", "chain": "MHHHHHHSSGLVPRGSHMDTGFLNTDSGSNSRDVLLTLKKNNKNTLLLFGSQTGTAEDYANKLSRELHSRFGLKTMVADFADYDWDNFGDITEDILVFFIVATYGEGEPTDNADEFHTWLTEEADTLSTLKYTVFGLGNSTYEFFNAIGRKFDRLLSEKGGDRFAEYAEGDDGTGTLDEDFMAWKDNVFDALKNDLNFEEKELKYEPNVKLTERDDLSAADSQVSLGEPNKKYINSEGIDLTKGPFDHTHPYLARITETRELFSSKDRHCIHVEFDISESNLKYTTGDHLAIWPSNSDENIKQFAKCFGLEDKLDTVIELKALDSTYTIPFPTPITYGAVIRHHLEISGPVSRQFFLSIAGFAPDEETKKAFTRLGGDKQEFAAKVTRRKFNIADALLYSSNNAPWSDVPFEFLIENVPHLTPRYYSISSSSLSEKQLINVTAVVEAEEEADGRPVTGVVTNLLKNVEIVQNKTGEKPLVHYDLSGPRGKFNKFKLPVHVRRSNFKLPKNSTTPVILIGPGTGVAPLRGFVRERVQQVKNGVNVGKTLLFYGCRNSNEDFLYKQEWAEYASVLGENFEMFNAFSRQDPSKKVYVQDKILENSQLVHELLTEGAIIYVCGDASRMARDVQTTISKIVAKSREISEDKAAELVKSWKVQNRYQEDVW"}, "B3": {"name": "soluble CPRA from Candida tropicalis produced in E. coli (pProEX-1), his-tag removed with TEV protease (protein)", "chain": "DTGFLNTDSGSNSRDVLLTLKKNNKNTLLLFGSQTGTAEDYANKLSRELHSRFGLKTMVADFADYDWDNFGDITEDILVFFIVATYGEGEPTDNADEFHTWLTEEADTLSTLKYTVFGLGNSTYEFFNAIGRKFDRLLSEKGGDRFAEYAEGDDGTGTLDEDFMAWKDNVFDALKNDLNFEEKELKYEPNVKLTERDDLSAADSQVSLGEPNKKYINSEGIDLTKGPFDHTHPYLARITETRELFSSKDRHCIHVEFDISESNLKYTTGDHLAIWPSNSDENIKQFAKCFGLEDKLDTVIELKALDSTYTIPFPTPITYGAVIRHHLEISGPVSRQFFLSIAGFAPDEETKKAFTRLGGDKQEFAAKVTRRKFNIADALLYSSNNAPWSDVPFEFLIENVPHLTPRYYSISSSSLSEKQLINVTAVVEAEEEADGRPVTGVVTNLLKNVEIVQNKTGEKPLVHYDLSGPRGKFNKFKLPVHVRRSNFKLPKNSTTPVILIGPGTGVAPLRGFVRERVQQVKNGVNVGKTLLFYGCRNSNEDFLYKQEWAEYASVLGENFEMFNAFSRQDPSKKVYVQDKILENSQLVHELLTEGAIIYVCGDASRMARDVQTTISKIVAKSREISEDKAAELVKSWKVQNRYQEDVW"}, "B4": {"name": "full-length, membrane associated CPRA (NADPH-cytochrome P450 reductase) from Candida tropicalis (protein)", "chain": "MALDKLDLYVIITLVVAVAAYFAKNQFLDQPQDTGFLNTDSGSNSRDVLLTLKKNNKNTLLLFGSQTGTAEDYANKLSRELHSRFGLKTMVADFADYDWDNFGDITEDILVFFIVATYGEGEPTDNADEFHTWLTEEADTLSTLKYTVFGLGNSTYEFFNAIGRKFDRLLSEKGGDRFAEYAEGDDGTGTLDEDFMAWKDNVFDALKNDLNFEEKELKYEPNVKLTERDDLSAADSQVSLGEPNKKYINSEGIDLTKGPFDHTHPYLARITETRELFSSKDRHCIHVEFDISESNLKYTTGDHLAIWPSNSDENIKQFAKCFGLEDKLDTVIELKALDSTYTIPFPTPITYGAVIRHHLEISGPVSRQFFLSIAGFAPDEETKKAFTRLGGDKQEFAAKVTRRKFNIADALLYSSNNAPWSDVPFEFLIENVPHLTPRYYSISSSSLSEKQLINVTAVVEAEEEADGRPVTGVVTNLLKNVEIVQNKTGEKPLVHYDLSGPRGKFNKFKLPVHVRRSNFKLPKNSTTPVILIGPGTGVAPLRGFVRERVQQVKNGVNVGKTLLFYGCRNSNEDFLYKQEWAEYASVLGENFEMFNAFSRQDPSKKVYVQDKILENSQLVHELLTEGAIIYVCGDASRMARDVQTTISKIVAKSREISEDKAAELVKSWKVQNRYQEDVW"}}, "key": {"[1]": {"target": "CYP52A5A, omega-hydroxylating cytochrome P450 of Candida tropicalis (Candida tropicalis)", "experiment": "cell-based or functional assay"}, "cytochrome c [2]": {"target": "cytochrome c", "experiment": "cell-based or functional assay"}, "[3]": {"target": "CYP52A5A, omega-hydroxylating cytochrome P450 of Candida tropicalis"}, "cytochrome c [4]": {"target": "cytochrome c"}}, "note": "Several values for one entry are separate records, joined by “and”; a condition that tells them apart may be missing. Equal values may be shown once."}
{"molecule": "truncated (soluble) CPRA from Candida tropicalis, produced in Sf9 insect cells (from UniProt P37201 33-680) (enzyme)", "values": [{"measurement": "Enhancement (%) of hydroxylation of C14 myristic acid, 4 µl sCPR added", "setting": "[1]", "result": 2.4, "unit": "%"}, {"measurement": "Enhancement (%) of hydroxylation of C14 myristic acid, 8 µl sCPR added", "setting": "[1]", "result": 3.4, "unit": "%"}, {"measurement": "Enhancement (%) of hydroxylation of C14 myristic acid, 16 µl sCPR added", "setting": "[1]", "result": 3.4, "unit": "%"}, {"measurement": "Enhancement (%) of hydroxylation of C14 myristic acid, 32 µl sCPR added", "setting": "[1]", "result": 8.1, "unit": "%"}, {"measurement": "Enhancement (%) of hydroxylation of C14 myristic acid, 64 µl sCPR added", "setting": "[1]", "result": 6.9, "unit": "%"}, {"measurement": "enhancement of formation of omega-hydroxylauric acid by CYP52A5A on addition of soluble CPR (TLC autoradiogram)", "setting": "[1]", "result": 4.4, "unit": "fold"}, {"measurement": "increase of omega-hydroxylauric acid formation on addition of soluble CPR in the presence of membrane associated CPR", "setting": "[1]", "result": 6, "unit": "%"}, {"measurement": "omega-hydroxylauric acid (nmol), CYP52A5A microsomes with soluble CPR added", "setting": "[1]", "result": 0.07, "unit": "nmol"}, {"measurement": "omega-hydroxylauric acid (nmol), CYP52A5A/CPRA microsomes with soluble CPR added", "setting": "[1]", "result": 0.115, "unit": "nmol"}, {"measurement": "Sp. Act. (reduction of cytochrome c), soluble fraction of Sf9 cells expressing truncated (soluble) CPRA", "setting": "cytochrome c [2]", "result": "8.42 µmol/min/mg and 4.4 µmol/min/mg"}, {"measurement": "specific activity (reduction of cytochrome c) relative to microsomes of cells expressing the unmodified CPR", "setting": "cytochrome c [2]", "result": 20, "unit": "fold"}]}
{"molecule": "B1", "values": [{"measurement": "Conversion (%) of C14 myristic acid, 4 µl sCPR added to CYP52A5A microsomes", "setting": "[3]", "result": 12.4, "unit": "%"}, {"measurement": "Conversion (%) of C14 myristic acid, 8 µl sCPR added to CYP52A5A microsomes", "setting": "[3]", "result": 13.4, "unit": "%"}, {"measurement": "Conversion (%) of C14 myristic acid, 16 µl sCPR added to CYP52A5A microsomes", "setting": "[3]", "result": 13.4, "unit": "%"}, {"measurement": "Conversion (%) of C14 myristic acid, 32 µl sCPR added to CYP52A5A microsomes", "setting": "[3]", "result": 18.1, "unit": "%"}, {"measurement": "Conversion (%) of C14 myristic acid, 64 µl sCPR added to CYP52A5A microsomes", "setting": "[3]", "result": 16.9, "unit": "%"}, {"measurement": "hydroxylation activity on addition of soluble CPR", "setting": "[3]", "result": "increased the hydroxylation activity approximately 5-fold"}, {"measurement": "net counts in product (omega-hydroxylation of [14C]-lauric acid), CYP52A5A microsomes with soluble CPR added", "setting": "[3]", "result": 7930, "unit": "net counts"}, {"measurement": "net counts in product (omega-hydroxylation of [14C]-lauric acid), CYP52A5A/CPRA microsomes with soluble CPR added", "setting": "[3]", "result": 13200, "unit": "net counts"}]}
{"molecule": "B2", "values": [{"measurement": "Sp. Act. (reduction of cytochrome c), E. coli extract", "setting": "cytochrome c [4]", "result": 5.3, "unit": "µmol/min/mg"}, {"measurement": "Sp. Act. (reduction of cytochrome c), concentrated & dialyzed purified protein", "setting": "cytochrome c [4]", "result": 420, "unit": "µmol/min/mg"}]}
{"molecule": "B3", "values": [{"measurement": "specific activity in reduction of cytochrome c", "setting": "cytochrome c [4]", "result": 198, "unit": "U/mg"}]}
{"molecule": "B4", "values": [{"measurement": "net counts in product (omega-hydroxylation of [14C]-lauric acid), CYP52A5A/CPRA microsomes without soluble CPR", "setting": "[3]", "result": 12400, "unit": "net counts"}]}
